Reference: patent publication US12194082B2, “Compositions and methods for treatment of homocystinuria” (THE REGENTS OF THE UNIVERSITY OF COLORADO, priority 2016, dated 2025)

Experiments:
I278T mice = assay: Eye defects (ciliary zonule) in I278T mice; format: in vivo, mouse; details: 7.5 mg/kg SC 3x/week from 2 days to 4 months of age
Method: Mice were subjected to perfusion fixation with 4% paraformaldehyde in 1×PBS pH 7.4 (4% PFA) to preserve the walls of the eye globe. Eyes were carefully surgically removed, submerged into 4% PFA and a small hole was carefully made in the posterior globe of the eye right below the optic nerve to allow the fixative to permeate to the interior of the eye and fixate the structures overnight at 4° C. The samples were washed 3 times using filtered 1×PBS pH 7.4. After washing, the posterior globe of the eye was carefully dissected down to the level of the ciliary epithelium to expose the ciliary zonule. The sample was placed in 8% BSA blocking solution for 2 hours with shaking. After blocking, MAGP1 antibodies (Sigma) diluted 1:50 in 4% BSA were added to the sample and stored at 4° C. overnight. The next day, the sample was washed 6 times using 1×PBS pH 7.4, and Alexa 488 secondary antibodies (1:200, Invitrogen) were added to the sample and incubated for 2 hours at room temperature with shaking. […]
The changes in metabolite levels in plasma were measured in I278T (+/−) healthy heterozygous control mice, untreated −/− affected homozygous control mice, and 20NHS PEG-htCBS C15S-treated −/− homozygous I278T mice. […] Levels measured beginning at 72 hours after the injection as mice were on the treatment from 2 days of age.

[1] = LC/MS/MS C15S activity assay of monkey plasma samples; format: in vivo, cynomolgus monkey
Excerpt: The bioanalytical method developed using LC/MS/MS for the determination of cystathionine M+4 as product of the CBS activity using cystathionine M+8 (^13C2D6) as an internal standard has been developed and validated for both monkey and human plasma samples and thus can be used to determine CBS activity in samples from pharmacokinetic and toxicology studies as well as clinical trials. The enzymatic assay was essentially performed as described in Example 1 with the following modifications. Deuterated D,L-homocysteine M+4 was used to initiate the reaction with unlabeled L-serine in the reaction mixture. After 30 min incubation at 37° C., the enzymatic reaction was stopped by acidification using 6N HCl and labeled product of the reaction (cystathionine M+4) was extracted using EZ:faast kit (Phenomenex, USA). Briefly, 50 μl of sample (calibration standard, QC sample or enzymatic reaction) was mixed in tube on ice and protected from light with 100 μl of internal standard solution (cystathionine M+8, 0.25 ng/μl) and 250 μl water. The mix was extracted with MCX cartridge columns (Waters). Eluted medium (6N ammonia in methanol) was evaporated to dryness at 45° C. The dry residue was dissolved in eluent medium of the EZ:faast kit, derivatized and liquid-liquid extracted following the kit manufacturer's protocol. The solid phase extraction was automatized with extraction plates to increase throughput and save time. Measurable concentrations of cystathionine M+4 were observed regardless of origin of the enzyme (htCBS C15S or C15S/ME-200GS present in plasma samples or controls or traces of endogenous monkey/human CBS in plasma samples). Much attention was paid to the calibration range since the incurred determinations were in the higher part of the concentration range qualified (5.00 to 1500 nM).
(§1) Tables 12-14 below show the comparison of C15S/ME-200GS specific activity determined by LC/MS/MS using D,L-homocysteine M+4 as a substrate and by radiometric assay using L-[…] as a substrate. The enzyme's specific activity is presented in mU/μl. The “n.d.” stands for “not determined”.

[2] = Radiometric CBS activity assay of monkey plasma samples; format: in vivo, cynomolgus monkey
Excerpt: as §1

20NHS PEG-htCBS C15S: htCBS C15S PEGylated with ME-200GS PEG (20 kDa linear NHS ester-activated PEG)
eye defects (zonular fibers) (I278T mice): positive effect on the eye defects | specific activity in plasma, LC/MS/MS assay ([1]; single IV 2 mg/kg, 0.083 h): 88.865 mU/μl | specific activity in plasma, LC/MS/MS assay ([1]; single IV 2 mg/kg, 0.167 h): 81.065 mU/μl | specific activity in plasma, LC/MS/MS assay ([1]; single IV 2 mg/kg, 0.25 h): 80.315 mU/μl | specific activity in plasma, LC/MS/MS assay ([1]; single IV 2 mg/kg, 0.5 h): 81.815 mU/μl | specific activity in plasma, LC/MS/MS assay ([1]; single IV 2 mg/kg, 1 h): 75.415 mU/μl | specific activity in plasma, LC/MS/MS assay ([1]; single IV 2 mg/kg, 2 h): 71.765 mU/μl | specific activity in plasma, LC/MS/MS assay ([1]; single IV 2 mg/kg, 4 h): 67.415 mU/μl | specific activity in plasma, LC/MS/MS assay ([1]; single IV 2 mg/kg, 8 h): 61.715 mU/μl | specific activity in plasma, LC/MS/MS assay ([1]; single IV 2 mg/kg, 24 h): 47.815 mU/μl | specific activity in plasma, LC/MS/MS assay ([1]; single IV 2 mg/kg, 72 h): 28.915 mU/μl | specific activity in plasma, LC/MS/MS assay ([1]; single IV 2 mg/kg, 120 h): 17.180 mU/μl | specific activity in plasma, LC/MS/MS assay ([1]; single IV 2 mg/kg, 192 h): 8.490 mU/μl | specific activity in plasma, LC/MS/MS assay ([1]; single SC 2 mg/kg, 2 h): 6.479 mU/μl | specific activity in plasma, LC/MS/MS assay ([1]; single SC 2 mg/kg, 4 h): 11.108 mU/μl | specific activity in plasma, LC/MS/MS assay ([1]; single SC 2 mg/kg, 8 h): 19.913 mU/μl | specific activity in plasma, LC/MS/MS assay ([1]; single SC 2 mg/kg, 48 h): 32.538 mU/μl | specific activity in plasma, LC/MS/MS assay ([1]; single SC 2 mg/kg, 72 h): 27.888 mU/μl | specific activity in plasma, LC/MS/MS assay ([1]; single SC 2 mg/kg, 96 h): 20.768 mU/μl | specific activity in plasma, LC/MS/MS assay ([1]; single SC 2 mg/kg, 120 h): 16.958 mU/μl | specific activity in plasma, LC/MS/MS assay ([1]; single SC 2 mg/kg, 192 h): 9.063 mU/μl | specific activity in plasma, LC/MS/MS assay ([1]; single SC 2 mg/kg, 240 h): 5.908 mU/μl | specific activity in plasma, LC/MS/MS assay ([1]; single SC 2 mg/kg, 336 h): 2.273 mU/μl | specific activity in plasma, LC/MS/MS assay ([1]; single SC 6 mg/kg, 1 h): 3.065 mU/μl | specific activity in plasma, LC/MS/MS assay ([1]; single SC 6 mg/kg, 2 h): 7.640 mU/μl | specific activity in plasma, LC/MS/MS assay ([1]; single SC 6 mg/kg, 4 h): 18.365 mU/μl | specific activity in plasma, LC/MS/MS assay ([1]; single SC 6 mg/kg, 8 h): 41.090 mU/μl | specific activity in plasma, LC/MS/MS assay ([1]; single SC 6 mg/kg, 24 h): 85.190 mU/μl | specific activity in plasma, LC/MS/MS assay ([1]; single SC 6 mg/kg, 48 h): 86.090 mU/μl | specific activity in plasma, LC/MS/MS assay ([1]; single SC 6 mg/kg, 72 h): 74.840 mU/μl | specific activity in plasma, LC/MS/MS assay ([1]; single SC 6 mg/kg, 96 h): 59.940 mU/μl | specific activity in plasma, LC/MS/MS assay ([1]; single SC 6 mg/kg, 120 h): 56.340 mU/μl | specific activity in plasma, LC/MS/MS assay ([1]; single SC 6 mg/kg, 192 h): 24.190 mU/μl | specific activity in plasma, LC/MS/MS assay ([1]; single SC 6 mg/kg, 240 h): 14.440 mU/μl | specific activity in plasma, LC/MS/MS assay ([1]; single SC 6 mg/kg, 336 h): 4.784 mU/μl | specific activity in plasma, Radiometric assay ([2]; single IV 2 mg/kg, 0.083 h): 95.741 mU/μl | specific activity in plasma, Radiometric assay ([2]; single IV 2 mg/kg, 0.167 h): 90.049 mU/μl | specific activity in plasma, Radiometric assay ([2]; single IV 2 mg/kg, 0.25 h): 88.891 mU/μl | specific activity in plasma, Radiometric assay ([2]; single IV 2 mg/kg, 0.5 h): 85.342 mU/μl | specific activity in plasma, Radiometric assay ([2]; single IV 2 mg/kg, 1 h): 80.992 mU/μl | specific activity in plasma, Radiometric assay ([2]; single IV 2 mg/kg, 2 h): 78.984 mU/μl | specific activity in plasma, Radiometric assay ([2]; single IV 2 mg/kg, 4 h): 77.809 mU/μl | specific activity in plasma, Radiometric assay ([2]; single IV 2 mg/kg, 8 h): 70.357 mU/μl | specific activity in plasma, Radiometric assay ([2]; single IV 2 mg/kg, 24 h): 55.865 mU/μl | specific activity in plasma, Radiometric assay ([2]; single IV 2 mg/kg, 72 h): 31.601 mU/μl | specific activity in plasma, Radiometric assay ([2]; single IV 2 mg/kg, 120 h): 18.908 mU/μl | specific activity in plasma, Radiometric assay ([2]; single IV 2 mg/kg, 192 h): 9.182 mU/μl | specific activity in plasma, Radiometric assay ([2]; single SC 2 mg/kg, 1 h): 2.842 mU/μl | specific activity in plasma, Radiometric assay ([2]; single SC 2 mg/kg, 2 h): 5.801 mU/μl | specific activity in plasma, Radiometric assay ([2]; single SC 2 mg/kg, 4 h): 11.207 mU/μl | specific activity in plasma, Radiometric assay ([2]; single SC 2 mg/kg, 8 h): 22.164 mU/μl | specific activity in plasma, Radiometric assay ([2]; single SC 2 mg/kg, 24 h): 40.293 mU/μl | specific activity in plasma, Radiometric assay ([2]; single SC 2 mg/kg, 48 h): 36.658 mU/μl | specific activity in plasma, Radiometric assay ([2]; single SC 2 mg/kg, 72 h): 30.670 mU/μl | specific activity in plasma, Radiometric assay ([2]; single SC 2 mg/kg, 96 h): 23.536 mU/μl | specific activity in plasma, Radiometric assay ([2]; single SC 2 mg/kg, 120 h): 18.608 mU/μl | specific activity in plasma, Radiometric assay ([2]; single SC 2 mg/kg, 192 h): 9.496 mU/μl | specific activity in plasma, Radiometric assay ([2]; single SC 2 mg/kg, 240 h): 5.963 mU/μl | specific activity in plasma, Radiometric assay ([2]; single SC 2 mg/kg, 336 h): 2.441 mU/μl | specific activity in plasma, Radiometric assay ([2]; single SC 6 mg/kg, 1 h): 3.739 mU/μl | specific activity in plasma, Radiometric assay ([2]; single SC 6 mg/kg, 2 h): 9.180 mU/μl | specific activity in plasma, Radiometric assay ([2]; single SC 6 mg/kg, 4 h): 22.263 mU/μl | specific activity in plasma, Radiometric assay ([2]; single SC 6 mg/kg, 8 h): 50.194 mU/μl | specific activity in plasma, Radiometric assay ([2]; single SC 6 mg/kg, 24 h): 111.081 mU/μl | specific activity in plasma, Radiometric assay ([2]; single SC 6 mg/kg, 48 h): 109.292 mU/μl | specific activity in plasma, Radiometric assay ([2]; single SC 6 mg/kg, 72 h): 95.722 mU/μl | specific activity in plasma, Radiometric assay ([2]; single SC 6 mg/kg, 96 h): 73.072 mU/μl | specific activity in plasma, Radiometric assay ([2]; single SC 6 mg/kg, 120 h): 56.427 mU/μl | specific activity in plasma, Radiometric assay ([2]; single SC 6 mg/kg, 192 h): 31.513 mU/μl | specific activity in plasma, Radiometric assay ([2]; single SC 6 mg/kg, 240 h): 19.203 mU/μl | specific activity in plasma, Radiometric assay ([2]; single SC 6 mg/kg, 336 h): 5.807 mU/μl
